Assay results: PMC2849977 (Nature structural & molecular biology, 2009)

Biological target: PHF8 (Homo sapiens, UniProt Q9UPP1)
Test: PHF8 demethylation time course
Type: biochemical
Conditions: equimolar ratio added

PHF8, sequence (Q9UPP1 37-483): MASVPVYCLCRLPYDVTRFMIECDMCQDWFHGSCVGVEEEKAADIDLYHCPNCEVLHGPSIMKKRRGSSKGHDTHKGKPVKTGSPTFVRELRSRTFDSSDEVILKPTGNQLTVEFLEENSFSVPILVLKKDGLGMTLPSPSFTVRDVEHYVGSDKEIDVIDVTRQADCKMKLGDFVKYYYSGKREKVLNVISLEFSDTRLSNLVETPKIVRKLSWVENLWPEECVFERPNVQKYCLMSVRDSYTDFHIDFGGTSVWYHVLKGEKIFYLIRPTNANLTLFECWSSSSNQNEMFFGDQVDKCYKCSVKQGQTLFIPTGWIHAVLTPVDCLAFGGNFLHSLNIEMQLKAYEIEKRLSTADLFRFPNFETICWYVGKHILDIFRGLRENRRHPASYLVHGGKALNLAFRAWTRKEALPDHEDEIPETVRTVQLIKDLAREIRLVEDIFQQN

Substance	effect of added peptide in trans on demethylation of H3_1–24K9me2 by PHF8
H3_1–12K4me3: H3K4me3 modification in a short H3_1–12 peptide	inhibitory effect
H3_1–21K4me3: H3K4me3 modification in a long H3_1–21 peptide	inhibitory effect
